B1: Cdt2^PIP-3A: Cdt2 with I709, Y712, and F713 all mutated to alanine (protein, UniProt Q9NZJ0 1-730, looked up, variant I709A Y712A F713A)
Denticleless protein homolog: MLFNSVLRQPQLGVLRNGWSSQYPLQSLLTGYQCSGNDEHTSYGETGVPVPPFGCTFSSAPNMEHVLAVANEEGFVRLYNTESQSFRKKCFKEWMAHWNAVFDLAWVPGELKLVTAAGDQTAKFWDVKAGELIGTCKGHQCSLKSVAFSKFEKAVFCTGGRDGNIMVWDTRCNKKDGFYRQVNQISGAHNTSDKQTPSKPKKKQNSKGLAPSVDFQQSVTVVLFQDENTLVSAGAVDGIIKVWDLRKNYTAYRQEPIASKSFLYPGSSTRKLGYSSLILDSTGSTLFANCTDDNIYMFNMTGLKTSPVAIFNGHQNSTFYVKSSLSPDDQFLVSGSSDEAAYIWKVSTPWQPPTVLLGHSQEVTSVCWCPSDFTKIATCSDDNTLKIWRLNRGLEEKPGGDKLSTVGWASQKKKESRPGLVTVTSSQSTPAKAPRAKCNPSNSSPSSAACAPSCAGDLPLPSNTPTFSIKTSPAKARSPINRRGSVSSVSPKPPSSFKMSIRNWVTRTPSSSPPITPPASETKIMSPRKALIPVSQKSSQAEACSESRNRVKRRLDSSCLESVKQKCVKSCNCVTELDGQVENLHLDLCCLAGNQEDLSKDSLGPTKSSKIEGAGTSISEPPSPISPYASESCGTLPLPLRPCGEGSEMVGKENSSPENKNWLLAMAAKRKAENPSPRSPSSQTPNSRRQSGKKLPSPVTITPSSMRKACTAAHRKSQEDFCGPEHSTEL
modifications: FLAG tag
notes: Cdt2 with I709, Y712, and F713 all mutated to alanine

Assays:
Format in all cases: cell-based, human
[1] = tested on: Cdt1 degradation, U2OS cells; assay: Cdt1 degradation after UV irradiation in U2OS cells; settings: for Cdt1 degradation after UV: siCdt2 (3′ UTR), UV 20 J/m^2
Source text: Because the poly-ubiquitination activity of Cdt2^PIP-3A was reduced, we monitored the degradation of Cdt1 after UV irradiation. Asynchronously growing control U2OS cells and cells expressing Cdt2^WT or Cdt2^PIP-3A (Fig S7) were depleted of endogenous Cdt2 using an siRNA targeted to the 3′ UTR, and irradiated with UV.
Figure 7. The Cdt2 PIP box plays an important role for rapid Cdt1 degradation after UV irradiation. (A) U2OS cells and U2OS cells stably expressing Cdt2^WT-3FLAG or Cdt2^PIP-3A-3FLAG were transfected with siCdt2 targeted to the 3′ UTR or control siLuc for 48 h, irradiated with UV (+, 20 J/m^2) or not (−), and collected at the indicated time points (min) for Western blotting. (B) The protein levels were measured and the relative amounts of Cdt1, normalized to RCC1, after UV irradiation were shown, UV (−) level set as 1.0. Error bars represent SD from three independent experiments. (C) Cells were transfected with siCdt2 or control siLuc for 72 h, irradiated with UV (+, 5 J/m^2) or not (−) (not shown), and 1h later fixed for staining with Cdt1 and cyclinA antibodies. (D) The frequency of Cdt1-positive (+) cells among the total cells in (C) was shown (%) (average of two independent experiments).
Double-stranded RNAs were transfected at 100 nM using Oligofectamine (Invitrogen) or HiPerFect (QIAGEN). Twenty-four hours after the first transfection, a second transfection was performed and cells were cultured for two more days. The following siRNAs were made by Dharmacon: Skp2; […], Cdt2_3′UTR; […]. The siRNA for siLuc, known as GL2, was used as a control siRNA. For Cdt1 silencing in Fig 1A and B, unsychronized HeLa cells were transfected twice with 200 nM of Cdt1 siRNA or control luciferase siRNA using Lipofectamine 2000 with a time interval of 24 h and were analysed 48 h after the second transfection. In synchronized MCF7 cells (Fig 1D), a single transfection with 200 nM of Cdt1 siRNA or control luciferase siRNA using Lipofectamine 2000 5 h after release from thymidine and before adding nocodazole was carried out. The Cdt1 siRNA was made by MWG: […].

[2] = tested on: chromatin-containing fraction, HEK293 cells; assay: Chromatin fractionation of Cdt2; settings: stable HEK293, Western blot
Procedure: Figure 6. The Cdt2 PIP box is important for its recruitment to DNA damage sites and replication foci and for poly-ubiquitination activity. (A) HEK293 and stable Cdt2^WT or Cdt2^PIP-3A cells were locally UV irradiated, and stained for XPA and FLAG (Cdt2). XPA-positive spots were examined for FLAG signal, and its frequency was counted (%). More than 50 spots were examined. bar:10 μm. […] Bar: 10 μm. […] (D) Whole-cell extracts were prepared from HEK293 and stably transfected cells of Cdt2^WT or Cdt2^PIP-3A cells, separated into soluble (Sup) and chromatin-containing insoluble (Ppt) fractions, and were examined for indicated proteins. The asterisk indicates nonspecific bands. (E) HEK293 and stably transfected cells of Cdt2^WT or Cdt2^PIP-3A were treated with MG132 for 3 h. Whole-cell extracts (WCE) were prepared, separated into soluble (Sup) and insoluble (Ppt) fractions, and blotted with the indicated antibodies.
Cell extracts were prepared using 0.1% Triton X-100–containing mCSK buffer (200 μg of total protein in 400–800 μl). After centrifugation (17,900g for 10 min at 4°C), soluble and chromatin-containing pellet fractions were obtained. The pellets were washed with ice-cold 0.1% Triton X-100–containing mCSK buffer and subsequently suspended in SDS sample buffer.

[3] = tested on: PCNA; assay: Co-immunoprecipitation of PCNA with FLAG-tagged Cdt2 constructs; settings: for interaction with PCNA (reverse IP, anti-Myc): Myc-PCNA co-transfected, HEK293; for interaction with PCNA (anti-FLAG IP): cross-linked cells, 3FLAG fusions, no UV
Source text: Before cell lysate preparation, cells were cross-linked.
(§1) Figure 3. […] HEK293 cells were transfected with plasmids expressing the indicated Cdt2 fused to a C-terminal FLAG tag, cross-linked, and precipitated with anti-FLAG antibodies (arrows). […] The bands in the blank lanes for Cul4A blotting correspond to the cross-reacting bands to pre-stained marker. […] HEK293 cells were transfected with the indicated plasmids and treated as in A. * indicates nonspecific bands derived from IgGs. (C) A schematic drawing of the Cdt2 domain structure highlighting the C-terminal PIP box and a sequence alignment of PIP boxes in various organisms. The alanine-changed PIP box mutant of Cdt2 was shown (PIP-3A) together with Cdt1 PIP box. (D) HEK293 cells were transfected with Cdt2^WT or PIP box mutant (Cdt2^PIP-3A) C-terminally fused to a FLAG tag, treated as in B, and Cdt2 was precipitated with anti-FLAG resin.
Control or Cdt2-FLAG expressing 293 cells that were UV irradiated (50 J/m^2), or not UV irradiated, or in the middle S phase (5 h after release from aphidicolon arrest) were fixed with 0.02% formaldehyde for 10 min, lysed using 0.1% Triton X-100-containing modified cytoskeleton (mCSK) buffer (10 mM Pipes, pH 7.9, 100 mM NaCl, 300 mM sucrose, 0.1% [vol/vol] Triton X-100, 1 mM phenylmethylsulfonyl fluoride, 10 mM β-glycerophosphate, 1 mMNa3VO4, 10 mM NaF), and then sonicated. After centrifugation (120,000g, Beckman Type 45Ti rotor, for 20 min at 4°C), the supernatants were mixed with anti-FLAG antibody-conjugated magnetic beads (M8823; Sigma-Aldrich) for 1 h at 4°C to obtain immunoprecipitates. The precipitate was washed with ice-cold 0.1% Triton X-100 containing mCSK buffer and subsequently suspended in SDS sample buffer.

[4] = tested on: Cdt1; assay: Co-immunoprecipitation of Cdt1 with FLAG-tagged Cdt2; settings: anti-FLAG IP, HEK293, with or without UV irradiation
Source text: as §1
Next, we examined the interaction of CRL4^Cdt2 ligase with its target protein Cdt1, using HEK293 cells alone and cells transfected with Cdt2^WT or Cdt2^PIP-3A, with or without UV irradiation. […]

Row | Molecule | Cdt1 degradation after UV [1] | recovery in chromatin-containing fraction [2] | interaction with PCNA (reverse IP, anti-Myc) [3] | interaction with PCNA (anti-FLAG IP) [3] | co-precipitation of PCNA and Cdt1 [4] | Cdt1 stability after low-dose UV ([1]; siCdt2, UV 5 J/m^2, 1 h post UV)
1 | Cdt2: Cdt2 tagged with GFP, transiently expressed in MCF7 cells | restored Cdt1 degradation to similar kinetics to that of control siRNA-transfected U2OS cells | recovered in a chromatin-containing fraction | co-precipitated with Myc-PCNA | interact with PCNA | both PCNA and Cdt1 were precipitated, and their amounts were notably increased after UV irradiation | –
2 | B1 | much less effective in rescuing Cdt2 depletion | undetectable | not detected in the precipitates | lost almost entirely | neither Cdt1 nor PCNA co-precipitated well | Cdt1 remained stable 1 h post UV irradiation

— article PMC6312923 (Life Science Alliance, 2018)
